± gives the standard deviation of the averaged measurements.
system: ATP; test: switch fluorescence ratio, 500 uM ATP over buffer (Cy3 cluster intensity, sum of 5 cycles each) (fold (ratio)); higher = stronger signal-on switching upon ATP binding; sequences stand for … in TCGTCGGCAGCGTCAGATGTGTATAAGAGACAGTTTTTTTTTTTTTTTTTTTTTTTTT…TC; conditions: aptamer strand: ATP DNA aptamer (quencher-CACCTGGGGGAGTATTGCGGAGGAAGG + anchor), 100 nM annealed; ATP concentration: 500 uM
In short: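 After annealing to 100 nM quencher-labelled ATP aptamer, Cy3-labelled switching-strand clusters on a modified Illumina MiSeq flow-cell were imaged in selection buffer. A second image followed after 15 min with 500 uM ATP at 22 °C, and five such buffer/ATP cycles were done, each separated by NaOH stripping and re-annealing. The fluorescence ratio, averaged per switch-domain sequence, is summed target-cycle over summed buffer-cycle Cy3 intensity per cluster, with clusters outside 100-1000 RFU excluded.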
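Also: ATP exposure 15 min at 22 °C before imaging.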

| Sequence | switch fluorescence ratio |
| --- | --- |
| GCATAGGGCG | 1.01 ± 0.018 |
| CTTTATGTCT | 1 ± 0.033 |
| TCGGTCGTTT | 0.976 ± 0.015 |
| GCAACGGGAG | 0.988 ± 0.035 |
| TGGTTTTTGA | 0.988 ± 0.038 |
| ATGTTTGAAG | 0.9844 ± 0.0042 |
| ATTTTGAGGC | 1.02 ± 0.035 |
| TAGGTAGTTT | 0.969 ± 0.032 |
| AAAAGGAGGG | 0.999 ± 0.013 |
| CTGTGCTGT | 1.005 ± 0.0062 |
| TTTTGCCGTT | 1.01 ± 0.019 |
| GACGAAATTG | 0.99836 ± 0.0003 |
| GTGATTGACT | 1.03 ± 0.025 |
| AGCTAGGGGA | 1.08 ± 0.077 |
| AGAAAAAACG | 1.05 ± 0.092 |
| GCAAAGGGGT | 0.996 ± 0.021 |
| GGGTGATGTG | 0.955 ± 0.022 |
| TTCGTCAACA | 1.03 ± 0.046 |
| TTTGTTTGG | 1 ± 0.017 |
| TTTTTCTATT | 0.988 ± 0.019 |
| TAATGAGTGC | 0.997 ± 0.04 |
| AGTATTTCGT | 0.987 ± 0.031 |
| ATGGGGTGGT | 0.993 ± 0.025 |
| TGTTGGGGAA | 0.9676 ± 0.0074 |
| TGGGAATTGG | 0.981 ± 0.012 |

| Sequence | switch fluorescence ratio |
| --- | --- |
| TTATAGTATT | 0.957 ± 0.044 |
| TTTTAAGAGG | 1.01 ± 0.046 |
| ATTTAAATAG | 0.993 ± 0.035 |
| ACTTGTGACA | 1.12 ± 0.18 |
| GCGTATGGAC | 1.01 ± 0.02 |
| AATATTTCAT | 0.966 ± 0.025 |
| GTGCTGGATT | 1.02 ± 0.018 |
| CGGCTAGAAG | 0.994 ± 0.038 |
| GTTTCGGTGG | 0.986 ± 0.085 |
| TTCCGTCACG | 1.08 ± 0.043 |
| CAGGGTGTTG | 0.964 ± 0.041 |
| TGTAGGCGGC | 1.02 ± 0.015 |
| ACACAGGGTC | 1.07 ± 0.011 |
| CGGGTAGTGG | 0.995 ± 0.032 |
| GAGCCTGGTT | 0.967 ± 0.035 |
| TTACAAGAGG | 0.989 ± 0.024 |
| GTAATTTATC | 1.0089 ± 0.00052 |
| TGTTGCGTTA | 0.985 ± 0.021 |
| AGGGCAAGGA | 1.11 ± 0.16 |
| TGTTTTTCTG | 0.968 ± 0.039 |
| GGGAGGATGC | 0.993 ± 0.059 |
| GATAGGGGGT | 1.01 ± 0.061 |
| CAAGTTAAAG | 1.01 ± 0.015 |
| AATTGCGTTT | 1.01 ± 0.024 |
| ATGTTAGGCT | 0.998 ± 0.025 |

| Sequence | switch fluorescence ratio |
| --- | --- |
| AAGCGTTGAG | 1.009 ± 0.0045 |
| AGGGAAGGAT | 1.01 ± 0.047 |
| TTGACATCCC | 1.07 ± 0.032 |
| ATCTGGACTA | 0.984 ± 0.033 |
| GGATACGGTG | 1.08 ± 0.061 |
| TTTGCTGGCG | 0.935 ± 0.024 |
| TTGCGGCTTG | 0.9923 ± 0.0088 |
| TTATGAGGAC | 1.03 ± 0.056 |
| GCGCAGTCGG | 1.034 ± 0.0048 |
| ACGGGCTTCG | 1.05 ± 0.049 |
| TCATGTACGT | 1.06 ± 0.028 |
| AGACTGATGA | 1.01 ± 0.014 |
| CAAGGTGGAT | 1.051 ± 0.009 |
| GACACTAAGG | 1.01 ± 0.038 |
| CCGGGGAGGT | 1.06 ± 0.1 |
| GGGGCTTTAA | 1.18 ± 0.35 |
| CCGAGTTATA | 2.15 ± 0.013 |
| CTTAGATTCT | 0.993 ± 0.012 |
| GCGGAAGACG | 1.35 ± 0.6 |
| TTTCATGGCT | 1.01 ± 0.035 |
| ATGGGTACTG | 0.963 ± 0.022 |
| ATGGACTATC | 1.03 ± 0.046 |
| AATCGTTAAG | 0.97 ± 0.015 |
| GTGGGGGAGA | 0.9868 ± 0.0059 |
| CTGGTTTAGT | 0.978 ± 0.016 |

| Sequence | switch fluorescence ratio |
| --- | --- |
| ACGGGTAGAC | 1.0808 ± 0.001 |
| GTTGTAACGT | 0.988 ± 0.054 |
| TTCCAAAAAA | 1.1 ± 0.04 |
| TTACGGACGA | 1.317 ± 0.0043 |
| GACGCGGATG | 1.04 ± 0.02 |
| CCAGGATGCG | 0.971 ± 0.035 |
| ATGCAATCTT | 1.11 ± 0.06 |
| CCAGGCTTGT | 1.01 ± 0.018 |
| CATAAGGCTC | 1 ± 0.02 |
| TGGGTTCTGA | 0.98 ± 0.011 |
| AACCAAGGTT | 1.05 ± 0.082 |
| AGAGTAACGG | 0.995 ± 0.015 |
| CACTTAGGGG | 1.01 ± 0.022 |
| GGGGTAGTAC | 1.03 ± 0.026 |
| AAGGGGGCCT | 1 ± 0.024 |
| AATATGGAGG | 0.985 ± 0.033 |
| AACGTGGCGG | 0.988 ± 0.018 |
| TTCACGGGTC | 1.06 ± 0.06 |
| GTCGTAAGTT | 1.01 ± 0.024 |
| CGGTTCTGTG | 1 ± 0.012 |
| TTTTATCTGT | 1.01 ± 0.091 |
| TTTCCGGACG | 1.02 ± 0.037 |
| TTGTTTATGG | 0.983 ± 0.015 |
| GCTTCGGGGC | 1.01 ± 0.016 |
| TCTCCATTTA | 1.04 ± 0.015 |

| Sequence | switch fluorescence ratio |
| --- | --- |
| GGGTGAGTG | 0.996 ± 0.016 |
| TTGTTTCTTT | 1 ± 0.017 |
| TGGACAGACA | 1.111 ± 0.0046 |
| GTCATTAGCG | 0.973 ± 0.012 |
| GGCGCTGTGA | 1.01 ± 0.022 |
| TCGACCTAAT | 1.077 ± 0.01 |
| GATATGATCA | 0.9733 ± 0.0052 |
| GCGAAATGTG | 1.03 ± 0.013 |
| CGGGGTACGC | 1 ± 0.076 |
| TAGGGTTAAG | 0.9994 ± 0.004 |
| AAGGGGAGAA | 0.9872 ± 0.008 |
| CGGGACTCCG | 1.02 ± 0.0032 |
| CTGTCTATGC | 1.33 ± 0.049 |
| GTGAGGCGGA | 1.07 ± 0.087 |
| TATGGGGGTG | 1.05 ± 0.043 |
| AACGGGGGGT | 0.997 ± 0.033 |
| GATGACTTGC | 1 ± 0.064 |
| ATACGCTTTT | 1.14 ± 0.14 |
| TATAAACAGG | 0.998 ± 0.023 |
| GGATTTAAAT | 0.976 ± 0.042 |
| TGGGCCGGGG | 0.989 ± 0.019 |
| GGGTGGAAAA | 0.997 ± 0.048 |
| AAGGAGAATA | 1.03 ± 0.012 |
| GATAGTGGGA | 0.997 ± 0.018 |
| AAATAGAGTT | 0.998 ± 0.013 |

| Sequence | switch fluorescence ratio |
| --- | --- |
| CAGGGGTGGG | 0.999 ± 0.058 |
| AACTTTTTGG | 0.99 ± 0.013 |
| GTGTGCACGC | 1.05 ± 0.065 |
| GAGTTATGG | 0.995 ± 0.043 |
| ATAGAGGTGA | 1.019 ± 0.0022 |
| CGCCATGGGT | 0.9915 ± 0.0027 |
| ATGGTGTTGC | 0.964 ± 0.028 |
| TGTACCGTGC | 1.07 ± 0.068 |
| AAGTTCATCT | 1 ± 0.07 |
| TTATTAATCG | 0.963 ± 0.081 |
| TCGGGGCGTG | 1 ± 0.027 |
| GTGCACGTTG | 1.01 ± 0.019 |
| TGATGAAATT | 1.02 ± 0.036 |
| TGTGTGAAAA | 1 ± 0.032 |
| CGTGAAGCGT | 0.998 ± 0.039 |
| AAAATTCTGG | 0.973 ± 0.034 |
| TCCGGGGCAG | 1.262 ± 0.0072 |
| CTGGTATAGA | 1 ± 0.046 |
| TGGAGGTTAT | 0.9935 ± 0.0081 |
| CTCATCGGTC | 1.02 ± 0.035 |
| GTTTGAAATT | 1.03 ± 0.09 |
| TTTCGTAATT | 1 ± 0.024 |
| AGGGCCCCGG | 1.03 ± 0.023 |
| TATTTTGGGA | 1.02 ± 0.021 |
| TGGGGGAATC | 1.02 ± 0.046 |

| Sequence | switch fluorescence ratio |
| --- | --- |
| TCCCCGGGCA | 0.995 ± 0.04 |
| TATAAACGGG | 1 ± 0.024 |
| CACGAGTTGG | 1.014 ± 0.0049 |
| TAAGATAGTA | 0.993 ± 0.023 |
| GGGGGGATGA | 0.992 ± 0.024 |
| GATGAAGATT | 1.011 ± 0.005 |
| ATCGCTATGG | 1.125 ± 0.0017 |
| GACGTCTGGG | 0.986 ± 0.013 |
| TTCTCAGCAA | 2.43 ± 0.64 |
| ATGGGGGCCT | 1.02 ± 0.048 |
| CCAGGAGTCA | 1.032 ± 0.0017 |
| TAAAGGGGAA | 1.01 ± 0.047 |
| TTGGATAGAG | 0.996 ± 0.013 |
| ACTCCGTCTT | 1.441 ± 0.0027 |
| TTCGTCTGGG | 1.03 ± 0.065 |
| GGGGTCTTAT | 0.996 ± 0.038 |
| CCATTGTTTT | 0.997 ± 0.018 |
| GGGCGAGGGG | 1.01 ± 0.026 |
| TTTAGGGGTT | 1.02 ± 0.083 |
| ATGCCCGGGC | 0.988 ± 0.017 |
| CGTCCGACTT | 1.2 ± 0.089 |
| AAAATGGTGT | 1.002 ± 0.0083 |
| GACATAGTGG | 1.006 ± 0.0012 |
| AGCGCTTATG | 1 ± 0.022 |
| TCTTTTTTTA | 1.02 ± 0.06 |

| Sequence | switch fluorescence ratio |
| --- | --- |
| AATCTAAGGT | 0.983 ± 0.064 |
| TTGATATGAC | 1.014 ± 0.0094 |
| ATTAGTACTT | 0.987 ± 0.015 |
| ATTTTGGCAG | 0.99 ± 0.049 |
| GAGGTGGGTG | 1.015 ± 0.0056 |
| GGCCCCGGAT | 1 ± 0.07 |
| GTGTGGGAGT | 0.9963 ± 0.0016 |
| TTAACGGTTT | 0.988 ± 0.013 |
| TCCTTTAATC | 1.98 ± 1.4 |
| GGCTTGGGAA | 0.968 ± 0.027 |
| TGGTAATATC | 1.012 ± 0.0024 |
| TAGCGCATGG | 1.08 ± 0.046 |
| ATGGTCTTAT | 0.997 ± 0.014 |
| TTGGGTAATA | 1.05 ± 0.087 |
| TGATGGGTTT | 0.971 ± 0.043 |
| TATCTAGGGC | 1.025 ± 0.0042 |
| TGTTAGTTTT | 0.981 ± 0.013 |
| ATAACGCTCG | 1 ± 0.018 |
| TTTGGATTTA | 1.03 ± 0.057 |
| GGTTTACGGA | 0.964 ± 0.01 |
| TTCGGGGGAA | 0.993 ± 0.075 |
| CGGAATAGGG | 1.07 ± 0.052 |
| TAGTTATTAG | 1 ± 0.04 |
| TCGGAAGTCA | 1.012 ± 0.0042 |
| TATAATGGTG | 0.976 ± 0.021 |
